The values below come from article PMC10149743, “Structural studies of the nucleus-like assembly of jumbo bacteriophage 201φ2-1” (Frontiers in Microbiology, 2023).

Data set [1] deals with the molecule itself. The data set can be described thus: SEC; truncation mutants of gp105, purified as the wild type, Superose 6 Increase 10/300 GL in buffer B (20 mM HEPES pH 7.5, 150 mM NaCl); self-association. In general terms: In gel filtration, larger molecules generally elute earlier.
Data set [2] concerns the molecule itself. The data set can be described thus: cryo-EM structure; cube-like particles from the 11.4 ml SEC peak; reconstruction with O symmetry (4.76 Å) and without symmetry (6.41 Å).

B1: gp105Δ(NTS 1–17, CTS 609–631) (domain or fragment, Pseudomonas phage 201phi2-1, UniProt B3FIW8 18-608, looked up)
chain: QAPAQQFTQAPQEKPMQSTQSQPTPSYAGTGGINSQFTRSGNVQGGDARASEALTVFTRLKEQAVAQQDLADDFSILRFDRDQHQVGWSSLVIAKQISLNGQPVIAVRPLILPNNSIELPKRKTNIVNGMQTDVIESDIDVGTVFSAQYFNRLSTYVQNTLGKPGAKVVLAGPFPIPADLVLKDSELQLRNLLIKSVNACDDILALHSGERPFTIAGLKGQQGETLAAKVDIRTQPLHDTVGNPIRADIVVTTQRVRRNGQQENEFYETDVKLNQVAMFTNLERTPQAQAQTLFPNQQQVATPAPWVASVVITDVRNADGIQANTPEMYWFALSNAFRSTHGHAWARPFLPMTGVAKDMKDIGALGWMSALRNRIDTKAANFDDAQFGQLMLSQVQPNPVFQIDLNRMGETAQMDSLQLDAAGGPNAQKAAATIIRQINNLGGGGFERFFDHTTQPILERTGQVIDLGNWFDGDEKRDRRDLDNLAALNAAEGNENEFWGFYGAQLNPNLHPDLRNRQSRNYDRQYLGSTVTYTGKAERCTYNAKFIEALDRYLAEAGLQITMDNTSVLNSGQRFMGNSVIGNNMVSGQAQ
notes: gp105 of Pseudomonas phage 201phi2-1, GenBank ABY62937, residues 1-17 and 609-631 removed; Truncation made by PCR and In-Fusion cloning into pET28a; source: E. coli BL21 (DE3) pLysS, purified using the same method as for the wild type gp105
B1: the binding result in data set [1] is reported as “binds”.

B2: gp105Δ(NTS 1–60) (domain or fragment, Pseudomonas phage 201phi2-1, UniProt B3FIW8 61-631, looked up)
chain: QGGDARASEALTVFTRLKEQAVAQQDLADDFSILRFDRDQHQVGWSSLVIAKQISLNGQPVIAVRPLILPNNSIELPKRKTNIVNGMQTDVIESDIDVGTVFSAQYFNRLSTYVQNTLGKPGAKVVLAGPFPIPADLVLKDSELQLRNLLIKSVNACDDILALHSGERPFTIAGLKGQQGETLAAKVDIRTQPLHDTVGNPIRADIVVTTQRVRRNGQQENEFYETDVKLNQVAMFTNLERTPQAQAQTLFPNQQQVATPAPWVASVVITDVRNADGIQANTPEMYWFALSNAFRSTHGHAWARPFLPMTGVAKDMKDIGALGWMSALRNRIDTKAANFDDAQFGQLMLSQVQPNPVFQIDLNRMGETAQMDSLQLDAAGGPNAQKAAATIIRQINNLGGGGFERFFDHTTQPILERTGQVIDLGNWFDGDEKRDRRDLDNLAALNAAEGNENEFWGFYGAQLNPNLHPDLRNRQSRNYDRQYLGSTVTYTGKAERCTYNAKFIEALDRYLAEAGLQITMDNTSVLNSGQRFMGNSVIGNNMVSGQAQVHSAYAGTQGFNTQYQTGPSSFY
notes: gp105 of Pseudomonas phage 201phi2-1, GenBank ABY62937, residues 1-60 removed; Truncation made by PCR and In-Fusion cloning into pET28a; source: E. coli BL21 (DE3) pLysS, purified using the same method as for the wild type gp105
As for B2, the binding result in data set [1] is on record as “binds”.

B3: gp105Δ(NTS 1–17) (domain or fragment, Pseudomonas phage 201phi2-1, UniProt B3FIW8 18-631, looked up)
chain: QAPAQQFTQAPQEKPMQSTQSQPTPSYAGTGGINSQFTRSGNVQGGDARASEALTVFTRLKEQAVAQQDLADDFSILRFDRDQHQVGWSSLVIAKQISLNGQPVIAVRPLILPNNSIELPKRKTNIVNGMQTDVIESDIDVGTVFSAQYFNRLSTYVQNTLGKPGAKVVLAGPFPIPADLVLKDSELQLRNLLIKSVNACDDILALHSGERPFTIAGLKGQQGETLAAKVDIRTQPLHDTVGNPIRADIVVTTQRVRRNGQQENEFYETDVKLNQVAMFTNLERTPQAQAQTLFPNQQQVATPAPWVASVVITDVRNADGIQANTPEMYWFALSNAFRSTHGHAWARPFLPMTGVAKDMKDIGALGWMSALRNRIDTKAANFDDAQFGQLMLSQVQPNPVFQIDLNRMGETAQMDSLQLDAAGGPNAQKAAATIIRQINNLGGGGFERFFDHTTQPILERTGQVIDLGNWFDGDEKRDRRDLDNLAALNAAEGNENEFWGFYGAQLNPNLHPDLRNRQSRNYDRQYLGSTVTYTGKAERCTYNAKFIEALDRYLAEAGLQITMDNTSVLNSGQRFMGNSVIGNNMVSGQAQVHSAYAGTQGFNTQYQTGPSSFY
notes: gp105 of Pseudomonas phage 201phi2-1, GenBank ABY62937, residues 1-17 removed; Truncation made by PCR and In-Fusion cloning into pET28a; source: E. coli BL21 (DE3) pLysS, purified using the same method as for the wild type gp105
As for B3, the binding result in data set [1] is “binds”.

B4: gp105Δ(loop 279–285) (natural protein, Pseudomonas phage 201phi2-1, UniProt B3FIW8 1-631, looked up)
chain: MIRDTATNTTQTQAAPQQAPAQQFTQAPQEKPMQSTQSQPTPSYAGTGGINSQFTRSGNVQGGDARASEALTVFTRLKEQAVAQQDLADDFSILRFDRDQHQVGWSSLVIAKQISLNGQPVIAVRPLILPNNSIELPKRKTNIVNGMQTDVIESDIDVGTVFSAQYFNRLSTYVQNTLGKPGAKVVLAGPFPIPADLVLKDSELQLRNLLIKSVNACDDILALHSGERPFTIAGLKGQQGETLAAKVDIRTQPLHDTVGNPIRADIVVTTQRVRRNGQTDVKLNQVAMFTNLERTPQAQAQTLFPNQQQVATPAPWVASVVITDVRNADGIQANTPEMYWFALSNAFRSTHGHAWARPFLPMTGVAKDMKDIGALGWMSALRNRIDTKAANFDDAQFGQLMLSQVQPNPVFQIDLNRMGETAQMDSLQLDAAGGPNAQKAAATIIRQINNLGGGGFERFFDHTTQPILERTGQVIDLGNWFDGDEKRDRRDLDNLAALNAAEGNENEFWGFYGAQLNPNLHPDLRNRQSRNYDRQYLGSTVTYTGKAERCTYNAKFIEALDRYLAEAGLQITMDNTSVLNSGQRFMGNSVIGNNMVSGQAQVHSAYAGTQGFNTQYQTGPSSFY
notes: gp105 of Pseudomonas phage 201phi2-1, GenBank ABY62937, loop residues 279-285 deleted; source: E. coli BL21 (DE3) pLysS, purified using the same method as for the wild type gp105
Turning to B4, the binding result in data set [1] is “binds”.

B5: nucleus-like shell protein gp105 of bacteriophage 201φ2-1, wild type, C-terminal His6 (natural protein, Pseudomonas phage 201phi2-1, UniProt B3FIW8 1-631, looked up)
chain: MIRDTATNTTQTQAAPQQAPAQQFTQAPQEKPMQSTQSQPTPSYAGTGGINSQFTRSGNVQGGDARASEALTVFTRLKEQAVAQQDLADDFSILRFDRDQHQVGWSSLVIAKQISLNGQPVIAVRPLILPNNSIELPKRKTNIVNGMQTDVIESDIDVGTVFSAQYFNRLSTYVQNTLGKPGAKVVLAGPFPIPADLVLKDSELQLRNLLIKSVNACDDILALHSGERPFTIAGLKGQQGETLAAKVDIRTQPLHDTVGNPIRADIVVTTQRVRRNGQQENEFYETDVKLNQVAMFTNLERTPQAQAQTLFPNQQQVATPAPWVASVVITDVRNADGIQANTPEMYWFALSNAFRSTHGHAWARPFLPMTGVAKDMKDIGALGWMSALRNRIDTKAANFDDAQFGQLMLSQVQPNPVFQIDLNRMGETAQMDSLQLDAAGGPNAQKAAATIIRQINNLGGGGFERFFDHTTQPILERTGQVIDLGNWFDGDEKRDRRDLDNLAALNAAEGNENEFWGFYGAQLNPNLHPDLRNRQSRNYDRQYLGSTVTYTGKAERCTYNAKFIEALDRYLAEAGLQITMDNTSVLNSGQRFMGNSVIGNNMVSGQAQVHSAYAGTQGFNTQYQTGPSSFY
notes: gp105 (nucleus-like shell protein, chimallin) of Pseudomonas phage 201phi2-1, GenBank ABY62937; 631 amino acids; synthesised codon-optimised gene in pET28a; residues 1-48 and 583-631 are named as present but not built in the model; Occurs as monomer, 24-mer cube-like particle and large sheet-like assemblies; also called NLSP; source: E. coli BL21 (DE3) pLysS, purified (cobalt resin, Superose 6 …)
A word on the stoichiometry N: it is the number of molecules, sites or subunits per partner or assembly. As to B5, in data set [2], the “stoichiometry N” value came to 24.
